± gives the uncertainty stated by the source.
Experiment: protein stability index of a GFP-peptide fusion (yeast GPS) (PSI 1-4); higher = more stable; sorted into four equal gates, so the index is relative within each strain
In short: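 Plasmids isolated from each sorting gate were PCR-amplified and Illumina-sequenced, and barcodes assigned the reads to strains. The gates, four of equal size, were set by GFP/Cherry fluorescence ratio on mid-log cultures in leucine-free medium. These cultures were yeast carrying a pooled library of tiled 17-residue yeast protein peptides fused downstream of GFP on a plasmid that also expresses Cherry. The protein stability index is the sum of every gate's read frequency times its gate number.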

| Sequence | protein stability index (doa10∆) | protein stability index (pdr5∆) | protein stability index (san1∆) | protein stability index (ubr1∆) |
| --- | --- | --- | --- | --- |
| RLHYYPKDPSNVETYEQ [BRR2] | 3.02 ± 0.11 | 3.11 ± 0.23 | 3.01 ± 0.24 |  |
| ILVLALEDLKDVYASKV [PRP8] | 2.29 ± 0.064 | 1.8 ± 0.057 | 2.85 ± 0.081 | 2.21 ± 0.066 |
| QELKADSPFSLICQNNL [SRP72] | 2.53 ± 0.078 | 2.56 ± 0.064 | 2.66 ± 0.054 | 2.85 ± 0.049 |
| LVDTPSNNTAATADTTH [NUT1] |  |  | 3.21 ± 0.059 | 3.17 ± 0.082 |
| ESNIKMTLEDNNVTSNP [SSN2] | 2.91 ± 0.092 | 3.25 ± 0.11 | 2.68 ± 0.086 | 2.95 ± 0.055 |
| AVFIVPKILIREHERVI [SWP82] | 1.7 ± 0.085 | 2.06 ± 0.097 | 1.69 ± 0.15 | 2.1 ± 0.19 |
| FKLGKFNYVAVGDVSNL [QCR2] | 3.28 ± 0.1 | 2.01 ± 0.1 | 2.38 ± 0.14 | 2.83 ± 0.068 |
| KIKHGSVTEIPLKLSGE [YMR129W/POM152] | 2.77 ± 0.07 | 2.93 ± 0.057 | 2.58 ± 0.072 | 2.97 ± 0.086 |
| QYYLSVLNQQLPIESQF [BRR2] | 2.28 ± 0.059 | 2.66 ± 0.059 | 2.65 ± 0.055 | 2.42 ± 0.039 |
| KFILQILQILNLMILNT [YML103C/NUP188] | 1.3 ± 0.081 | 1.29 ± 0.064 | 1.42 ± 0.21 | 2.09 ± 0.03 |
| QKLFVQVSNFAPQVYII [GAL11] | 2.62 ± 0.077 | 2.45 ± 0.061 | 2.86 ± 0.065 | 2.32 ± 0.049 |
| VGSENVECTISILRKSS [SNF12] | 1.89 ± 0.042 | 2.23 ± 0.044 | 2.43 ± 0.044 | 2.11 ± 0.036 |
| AIQMVDPASFYLFDEID [SMC3] | 1.95 ± 0.042 | 2.32 ± 0.049 | 2.66 ± 0.067 | 2.07 ± 0.045 |
| ENDEEFYKNKYSSKPYK [RPN2] | 2.4 ± 0.062 | 2.61 ± 0.097 | 2.36 ± 0.12 | 2.19 ± 0.17 |
| LGINLVTADTVILFDSD [ISW2] | 2.53 ± 0.1 | 2.65 ± 0.086 | 2.51 ± 0.16 | 2.94 ± 0.06 |
| IPRHLQLAIRNDDELNK [HTA1] | 3.02 ± 0.093 | 3.23 ± 0.063 | 3.28 ± 0.059 | 2.89 ± 0.062 |
| KVISNPLLARKQFVVDV [RPS24A] | 1.95 ± 0.088 | 1.94 ± 0.048 | 2.14 ± 0.076 | 2.07 ± 0.05 |
| HYMVHEALNLLKFFLVD [LIN1] | 2.19 ± 0.053 | 1.7 ± 0.043 | 1.79 ± 0.081 | 2.11 ± 0.058 |
| YAKEDAFSYPRMYEEAS [RPN2] | 2.66 ± 0.091 | 1.35 ± 0.082 | 1.27 ± 0.11 | 1.43 ± 0.058 |
| PMETLLSGLSADKPFTR [YML031W/NDC1] | 2.91 ± 0.05 | 3.04 ± 0.05 | 2.94 ± 0.037 | 2.85 ± 0.034 |
| LSSGESNEIKVTNDLDT [SIR4] | 2.94 ± 0.16 | 2.97 ± 0.12 | 2.88 ± 0.22 | 2.52 ± 0.08 |
| NEISRNGTMINEVIDKL [PCI8] | 2.59 ± 0.067 | 2.51 ± 0.066 | 2.48 ± 0.072 | 2.78 ± 0.065 |

| Sequence | protein stability index (doa10∆) | protein stability index (pdr5∆) | protein stability index (san1∆) | protein stability index (ubr1∆) |
| --- | --- | --- | --- | --- |
| SAIDEEIEELIDSINGP [SMC3] | 3.29 ± 0.14 | 3.24 ± 0.17 | 3.08 ± 0.17 | 2.42 ± 0.24 |
| RESLIMLLEEQLEYKRG [MED7] | 2.51 ± 0.08 | 2.77 ± 0.071 | 2.42 ± 0.091 | 2.75 ± 0.057 |
| PGSRASSRFIKGGSLYG [RPN2] | 2.19 ± 0.12 | 1.92 ± 0.11 | 1.45 ± 0.11 | 2.14 ± 0.069 |
| NEIKQLGSDSSDGHNSE [SRB4] | 2.6 ± 0.072 | 2.8 ± 0.084 | 2.31 ± 0.078 | 3 ± 0.09 |
| MSDEDNNYDDFMLSDDE [RRI2] |  | 3.58 ± 0.23 | 3.28 ± 0.25 |  |
| EEFAYVDPARRQILFKY [MED6] | 2.57 ± 0.085 | 2.19 ± 0.061 | 2.02 ± 0.09 | 2.06 ± 0.053 |
| MAGLMHFKKPDITVHGE [RRP45] | 2.89 ± 0.19 | 2.14 ± 0.13 | 1.76 ± 0.16 | 1.25 ± 0.092 |
| KPTVILKLLKENIIQME [FAS1] | 1.38 ± 0.087 | 1.36 ± 0.12 | 1.24 ± 0.11 | 1.1 ± 0.11 |
| LHYIPKYNRYEKRHKNV [RPS11A] | 2.06 ± 0.063 | 1.74 ± 0.054 | 1.78 ± 0.089 | 2.26 ± 0.05 |
| GRYMEALALYVDAYRRL [SRP68] | 1.84 ± 0.074 | 1.91 ± 0.11 | 1.85 ± 0.15 | 1.79 ± 0.077 |
| GALIHKAGLMTGGISGD [SMC1] | 2.63 ± 0.16 | 2.73 ± 0.11 | 2.72 ± 0.06 | 2.75 ± 0.087 |
| IFTDAGRVYRPLFIVED [RPB2] | 2.16 ± 0.066 | 2.51 ± 0.08 | 2.06 ± 0.074 | 1.89 ± 0.033 |
| QDKEKIDNLKDTLKENA [ITC1] | 2.87 ± 0.046 | 3.07 ± 0.055 | 3.02 ± 0.043 | 3.09 ± 0.04 |
| CLLSIPKSTKGKILTIK [YML103C/NUP188] | 1.67 ± 0.053 | 1.87 ± 0.062 | 1.66 ± 0.11 | 1.97 ± 0.054 |
| NVVPYHRNTSDYYYEDA [SWI1] | 2.85 ± 0.085 | 3.13 ± 0.075 | 3.03 ± 0.08 | 3.08 ± 0.055 |
| ADYRLILTGTPLQNNLP [SNF2] | 2.08 ± 0.047 | 2.15 ± 0.043 | 1.65 ± 0.058 | 2.03 ± 0.037 |
| SAIRQVFERFKTKILEV [IRR1] | 1.87 ± 0.045 | 2.03 ± 0.06 | 1.71 ± 0.07 | 2.26 ± 0.05 |
| GEIDFIKNIGKSLKNNF [YML103C/NUP188] | 2.59 ± 0.21 | 2.57 ± 0.18 | 2.17 ± 0.15 |  |
| PFTASQSNINTNAPLRT [YIL149C/MLP2] | 2.37 ± 0.12 | 2.49 ± 0.089 | 2.11 ± 0.075 | 2.08 ± 0.053 |
| PKLESVKWQYDPNNPVD [SNF12] | 2.38 ± 0.059 | 2.81 ± 0.055 | 2.21 ± 0.067 | 2.55 ± 0.031 |
| RLNTVTRVHQLMLEDAV [MCD1] | 3.32 ± 0.21 | 1.62 ± 0.06 | 1.69 ± 0.21 | 2.32 ± 0.095 |
| FPRSRSRSRSSIRSISP [ESC2] | 2.86 ± 0.2 | 3.18 ± 0.13 | 3.03 ± 0.09 | 3.34 ± 0.19 |

Source: the supplement of paper PMC9732359
